For the data set, the target named is WhiA (Streptomyces venezuelae) (UniProt F2RGQ4). The data set can be described thus: DNase I footprinting. The conditions noted are these: DNase I footprinting per Sure Track kit (Amersham); buffer, salt, pH and temperature not given in the material.
Sequence of UniProt F2RGQ4 (F2RGQ4 whole entry): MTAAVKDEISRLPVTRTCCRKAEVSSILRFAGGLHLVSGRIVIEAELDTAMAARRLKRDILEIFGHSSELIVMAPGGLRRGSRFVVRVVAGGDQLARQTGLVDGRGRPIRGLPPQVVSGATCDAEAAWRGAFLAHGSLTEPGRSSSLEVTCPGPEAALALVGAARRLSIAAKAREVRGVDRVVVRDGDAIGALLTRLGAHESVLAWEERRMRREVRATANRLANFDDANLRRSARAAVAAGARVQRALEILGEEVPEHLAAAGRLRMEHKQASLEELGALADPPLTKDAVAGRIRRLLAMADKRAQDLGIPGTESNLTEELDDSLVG

Consider “AGCATCCGGTGCACCCTCCCAGTGTCGCACCCGAAGGTGTCGAATCCCGGGAGTGGGCCCGCCGCGACACGCGGAGGGCCCGGAATCGCCTTTAACCCAAGATCTAGTGGTTGGATGGCATCGG (double strand) [nrdR promoter probe]”, for which the binding entry was “binds”.
Regarding “CCGGAATTCCCACTCAAAAGGCTGGACATTCTCCAGATCAAACGGGCATACGCTCGATGACACGCCGCTTCGGCCCCTAGGATTCCCTCTAACACCTCACCGGTCTCATTCGACAGGAAACCCATGAGCGACACATCCTCCCCCTTCGGCTTCGAGCTCGTGCGGCGCGGTTAGGATCCGCG (double strand) [filP promoter probe]”, the binding result was “binds”.
Consider “GAACTGGTGGAGAAGTCGGCGAAGCGCTTGCGCGGGGCCGTCCTGATCGGTGCCGACCGCGCCCTGATCCGCGAAGCCCTGGCGCGACACGCCCCGGAGGTACCGGTGGTGGACCTCGACCGGACCGACACTGGGGCGATGTCCGAGGCGGTC (double strand) [ftsW promoter probe]”, for which the binding entry is reported as “binds”.
Regarding “GACATACCCACTCGGACTACTCCAGTCGACACGCCGAGGGTTTGCCCCTTTTGTAGGGATATCGACCCGTTCGACGACAGCTGGAGGCACCGTGCGGCCGGGAGGCTACGACTACGACAC (double strand) [cslA promoter probe]”, the binding result was “binds”.
For “GACGTGCCGCGCATCCGGGCGGCCACGGACCTGGGCAACGTCCCGATGGCCGCGGCGTTCGCCCGGGCGGGTTACGACGCCTTCGAGCACGCGATCAACTACGTGTGGGACGCGCCGGGCGTGGCGGGTCCCTGACTGCCAGGATGGGGGCGTAGGTCCGTCGACGAGGGGATTTGGCGTGCTCTTCGAGGTGTGGGC (double strand) [treZ promoter probe]” the value was “binds”.
Take “GCGCCGCAGCCCGGAGAAACCGAGGGCTTCTCCCCGCAGCGTCATTTGGAGGTTTTGGGACGACACGCCCCTAAACTCGCCCTGGACGTGGTGCTGGCCGACGAGGCCGCCGTGCCCGACCGCGAGTCCCTCGCCGACGCCGCCAAGCGGCTCGGTGCCGC (double strand) [whiAp2 promoter probe]”: the binding entry is “binds”.
Turning to “GCTGCTCCACTCCACCAACGTAGGTCGGGAAGGGGCGGGAACCGGGTCCGGGACACGCCCTTTGGGTGACCTTGCCCCCGAGAACGACCGAAGGTCGGCGTCG (double strand) [sven4724-sven4725 intergenic probe]”, the binding entry is on record as “binds”.
For “GGCGGTACGGGAGCGGCCGACGCAGACTGGGAGGAGCGCCCTCTTTCCCGGAGTGCTGGAGGAACCACGGTATGACCGACCTCGCCATCGAGACCGAGGGCCTGGTCAAGGTCTTCGGCAGCAACCGCGCCGTCGACGGGATCGACCTCCGCGTCCCCGCCGGAATCGTCTACGGAGTCCTTGGCCCCAACGGCGC (double strand) [sven3535 promoter probe]” the value was “no binding”.
On to “GTCTCGCGCATGTGAGGGGCGGTGCCGCGCGGGGCACCGGGCCCGGCGGGCCCGGGCCGCACCGACGCGCCGGAATGATCGCTAAGAGGAAATTGTCCGATTAGCGCGTATCGTCGGCCCATGCCCACGCCATACGGATCCCGCGGCGGCATGGCGTTCAGCGCGGACGAGCTGCGTGTGCTCCGCCGTGCCCTCGCCATC (double strand) [sven3229 promoter probe]”, for which the binding result is “no binding”.

Values taken from article PMC3781837.
